Laboratory results as given in patent US20110190200A1 (INDIANA UNIVERSITY RESEARCH AND TECHNOLOGY, published 2011).
Where two headings read alike, the source gives them in different places. Numbered stars: 1 amine (or outer) side, 2 acyl side, 3 side chain; on linkers, the order of the positions; unused ones are H or OH. Square brackets hold non-standard residues; d marks the D form. Side chains are listed from the residue outwards. Ends that are not written are not given here. * marks the point of attachment. γGlu = O=C(O)[C@H](CCC(=O)[*:2])N[*:1]; Palmitoyl = CCCCCCCCCCCCCCCC(=O)*; Myristoyl = CCCCCCCCCCCCCC(=O)*; Dab = NCC[C@H](N)C(=O)O; Aib = CC(C)(N)C(=O)O

Key:
Experiment in all cases: cell-based or functional assay
GLP-1 receptor [1] = molecular target: T1, GLP-1 receptor (UniProt P43220 24-463, limits assumed)
glucagon receptor [2] = molecular target: T2, glucagon receptor (human, UniProt P47871 26-477)
T2 sequence (P47871 26-477): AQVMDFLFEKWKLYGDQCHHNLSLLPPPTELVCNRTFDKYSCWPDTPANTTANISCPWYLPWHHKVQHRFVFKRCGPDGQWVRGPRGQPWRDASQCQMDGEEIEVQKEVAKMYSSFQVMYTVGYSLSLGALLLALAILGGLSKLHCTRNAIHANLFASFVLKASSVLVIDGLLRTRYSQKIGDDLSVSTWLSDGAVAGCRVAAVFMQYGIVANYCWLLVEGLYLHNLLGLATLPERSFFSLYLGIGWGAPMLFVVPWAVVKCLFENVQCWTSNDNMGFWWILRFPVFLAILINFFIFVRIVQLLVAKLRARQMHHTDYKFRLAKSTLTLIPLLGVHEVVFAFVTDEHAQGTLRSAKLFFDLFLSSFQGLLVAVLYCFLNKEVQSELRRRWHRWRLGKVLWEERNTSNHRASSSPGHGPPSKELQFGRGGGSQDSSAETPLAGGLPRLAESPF

glucagon receptor [3] = molecular target: T2, glucagon receptor; remark: listed apart in the source
GLP-1 receptor [4] = molecular target: T1, GLP-1 receptor; remark: listed apart in the source
Target sequence in this assay (P43220 24-463 limits assumed): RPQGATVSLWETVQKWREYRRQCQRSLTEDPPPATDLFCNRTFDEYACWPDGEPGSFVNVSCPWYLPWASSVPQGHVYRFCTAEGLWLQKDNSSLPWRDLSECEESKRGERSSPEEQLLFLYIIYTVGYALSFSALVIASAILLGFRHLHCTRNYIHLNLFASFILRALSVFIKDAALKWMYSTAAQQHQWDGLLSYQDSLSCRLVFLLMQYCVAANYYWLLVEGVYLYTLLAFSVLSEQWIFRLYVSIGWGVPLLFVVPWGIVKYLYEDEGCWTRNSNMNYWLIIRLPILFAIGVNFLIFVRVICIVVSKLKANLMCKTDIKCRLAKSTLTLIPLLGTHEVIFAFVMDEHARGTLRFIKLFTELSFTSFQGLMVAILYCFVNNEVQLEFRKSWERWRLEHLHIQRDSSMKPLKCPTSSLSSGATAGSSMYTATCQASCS

GLP-1 receptor [5] = molecular target: T1, GLP-1 receptor; remark: listed apart in the source
glucagon receptor [6] = molecular target: T2, glucagon receptor; remark: listed apart in the source
glucagon receptor [7] = molecular target: T2, glucagon receptor; remark: listed apart in the source

B1: Peptide 77** (Table 11) (peptide)
peptide: H[Aib]QGTFTSDK(Myristoyl)SKYLD[Aib]RRAQDFVCWLMNT-NH2
modifications: N-terminus assumed
SMILES: CCCCCCCCCCCCCC(=O)NCCCC[C@H](NC(=O)[C@H](CC(=O)O)NC(=O)[C@H](CO)NC(=O)[C@@H](NC(=O)[C@H](Cc1ccccc1)NC(=O)[C@@H](NC(=O)CNC(=O)[C@H](CCC(N)=O)NC(=O)C(C)(C)NC(=O)[C@@H](N)Cc1c[nH]cn1)[C@@H](C)O)[C@@H](C)O)C(=O)N[C@@H](CO)C(=O)N[C@@H](CCCCN)C(=O)N[C@@H](Cc1ccc(O)cc1)C(=O)N[C@@H](CC(C)C)C(=O)N[C@@H](CC(=O)O)C(=O)NC(C)(C)C(=O)N[C@@H](CCCNC(=N)N)C(=O)N[C@@H](CCCNC(=N)N)C(=O)N[C@@H](C)C(=O)N[C@@H](CCC(N)=O)C(=O)N[C@@H](CC(=O)O)C(=O)N[C@@H](Cc1ccccc1)C(=O)N[C@H](C(=O)N[C@@H](CS)C(=O)N[C@@H](Cc1c[nH]c2ccccc12)C(=O)N[C@@H](CC(C)C)C(=O)N[C@@H](CCSC)C(=O)N[C@@H](CC(N)=O)C(=O)N[C@H](C(N)=O)[C@@H](C)O)C(C)C
EC50 at GLP-1 Receptor (GLP-1 receptor [1]): 0.063 nM | EC50 at Glucagon Receptor (glucagon receptor [2]): 0.144 nM

HSQGTFTSDYSKYLDSRRAQDFVQWLMNTE [glucagon analog E30]
Observed EC50s (nM) in Cells Overexpressing the Glucagon Receptor, Test 2 (glucagon receptor [3]): 0.04 nM

HSQGTFTSDYSKYLDSRRAQDFVQWLMNTKK [glucagon analog K30, K31]
Observed EC50s (nM) in Cells Overexpressing the Glucagon Receptor, Test 2 (glucagon receptor [3]): 0.12 nM

B2: Peptide 81** (Table 11) (peptide)
peptide: H[Aib]QGTFTSDK([Ala-Ala-Myristoyl])SKYLD[Aib]RRAQDFVCWLMNT-NH2
modifications: N-terminus assumed
SMILES: CCCCCCCCCCCCCC(=O)N[C@@H](C)C(=O)N[C@@H](C)C(=O)NCCCC[C@H](NC(=O)[C@H](CC(=O)O)NC(=O)[C@H](CO)NC(=O)[C@@H](NC(=O)[C@H](Cc1ccccc1)NC(=O)[C@@H](NC(=O)CNC(=O)[C@H](CCC(N)=O)NC(=O)C(C)(C)NC(=O)[C@@H](N)Cc1c[nH]cn1)[C@@H](C)O)[C@@H](C)O)C(=O)N[C@@H](CO)C(=O)N[C@@H](CCCCN)C(=O)N[C@@H](Cc1ccc(O)cc1)C(=O)N[C@@H](CC(C)C)C(=O)N[C@@H](CC(=O)O)C(=O)NC(C)(C)C(=O)N[C@@H](CCCNC(=N)N)C(=O)N[C@@H](CCCNC(=N)N)C(=O)N[C@@H](C)C(=O)N[C@@H](CCC(N)=O)C(=O)N[C@@H](CC(=O)O)C(=O)N[C@@H](Cc1ccccc1)C(=O)N[C@H](C(=O)N[C@@H](CS)C(=O)N[C@@H](Cc1c[nH]c2ccccc12)C(=O)N[C@@H](CC(C)C)C(=O)N[C@@H](CCSC)C(=O)N[C@@H](CC(N)=O)C(=O)N[C@H](C(N)=O)[C@@H](C)O)C(C)C
EC50 at GLP-1 Receptor (GLP-1 receptor [1]): 0.018 nM

H[Aib]QGTFTSDK(C18 fatty acyl)SKYLDEQAAKEFIC(PEG 40 kDa)WLMNT-NH2 [Peptide Chimera 2-AIB2-K10-acylated]
EC50 at the GLP-1 receptor (GLP-1 receptor [4]): 0.007 nM

HSQGTFTSDYSKYLDSRRAQDFVQWLMNKK [glucagon analog K29, K30]
Observed EC50s (nM) in Cells Overexpressing the Glucagon Receptor, Test 1 (glucagon receptor [3]): 0.89 nM

H[Aib]QGTFTSDK([γGlu-γGlu-Palmitoyl])SKYLD[Aib]RRAQDFVC(PEG 40 kDa)WLMNT-NH2 [Peptide 80* (Table 10)]
EC50 at GLP-1 Receptor (GLP-1 receptor [5]): 0.042 nM | EC50 at Glucagon Receptor (glucagon receptor [6]): 0.108 nM

HSQGTFTSDYSKYLESRRAQDFVQWLMDT [glucagon analog D28, E15]
Observed EC50s (nM) in Cells Overexpressing the Glucagon Receptor, Test 3 (glucagon receptor [3]): 0.15 nM

B3: HSDab(Ac)…ibRRAADFVAWLLDTGPSSGAPPPS amide (peptide)
peptide: HS[Dab](Ac)GTFTSDYSKYLD[Aib]RRAADFVAWLLDTGPSSGAPPPS-NH2
modifications: N-terminus assumed
SMILES: CC(=O)NCC[C@H](NC(=O)[C@H](CO)NC(=O)[C@@H](N)Cc1c[nH]cn1)C(=O)NCC(=O)N[C@H](C(=O)N[C@@H](Cc1ccccc1)C(=O)N[C@H](C(=O)N[C@@H](CO)C(=O)N[C@@H](CC(=O)O)C(=O)N[C@@H](Cc1ccc(O)cc1)C(=O)N[C@@H](CO)C(=O)N[C@@H](CCCCN)C(=O)N[C@@H](Cc1ccc(O)cc1)C(=O)N[C@@H](CC(C)C)C(=O)N[C@@H](CC(=O)O)C(=O)NC(C)(C)C(=O)N[C@@H](CCCNC(=N)N)C(=O)N[C@@H](CCCNC(=N)N)C(=O)N[C@@H](C)C(=O)N[C@@H](C)C(=O)N[C@@H](CC(=O)O)C(=O)N[C@@H](Cc1ccccc1)C(=O)N[C@H](C(=O)N[C@@H](C)C(=O)N[C@@H](Cc1c[nH]c2ccccc12)C(=O)N[C@@H](CC(C)C)C(=O)N[C@@H](CC(C)C)C(=O)N[C@@H](CC(=O)O)C(=O)N[C@H](C(=O)NCC(=O)N1CCC[C@H]1C(=O)N[C@@H](CO)C(=O)N[C@@H](CO)C(=O)NCC(=O)N[C@@H](C)C(=O)N1CCC[C@H]1C(=O)N1CCC[C@H]1C(=O)N1CCC[C@H]1C(=O)N[C@@H](CO)C(N)=O)[C@@H](C)O)C(C)C)[C@@H](C)O)[C@@H](C)O
% activity* (glucagon receptor [7]): 113% | EC50 (nM) at Glucagon Receptor (glucagon receptor [7]): 0.023 nM

HSQGTFTSDYSKYLDSRRAQDFVQWLMDTE [glucagon analog D28, E30]
Observed EC50s (nM) in Cells Overexpressing the Glucagon Receptor, Test 3 (glucagon receptor [3]): 0.05 nM

HS[Dab](Ac)GTFTSDYSKYLD[Aib]RRATDFVTWLLDE [HSDab(Ac)…ibRRATDFVTWLLDE]
% activity* (glucagon receptor [7]): 46% | EC50 (nM) at Glucagon Receptor (glucagon receptor [7]): 0.057 nM

B4: Peptide 78** (Table 11) (peptide)
peptide: H[Aib]QGTFTSDK([γGlu-γGlu-Myristoyl])SKYLD[Aib]RRAQDFVCWLMNT-NH2
modifications: N-terminus assumed
SMILES: CCCCCCCCCCCCCC(=O)N[C@@H](CCC(=O)N[C@@H](CCC(=O)NCCCC[C@H](NC(=O)[C@H](CC(=O)O)NC(=O)[C@H](CO)NC(=O)[C@@H](NC(=O)[C@H](Cc1ccccc1)NC(=O)[C@@H](NC(=O)CNC(=O)[C@H](CCC(N)=O)NC(=O)C(C)(C)NC(=O)[C@@H](N)Cc1c[nH]cn1)[C@@H](C)O)[C@@H](C)O)C(=O)N[C@@H](CO)C(=O)N[C@@H](CCCCN)C(=O)N[C@@H](Cc1ccc(O)cc1)C(=O)N[C@@H](CC(C)C)C(=O)N[C@@H](CC(=O)O)C(=O)NC(C)(C)C(=O)N[C@@H](CCCNC(=N)N)C(=O)N[C@@H](CCCNC(=N)N)C(=O)N[C@@H](C)C(=O)N[C@@H](CCC(N)=O)C(=O)N[C@@H](CC(=O)O)C(=O)N[C@@H](Cc1ccccc1)C(=O)N[C@H](C(=O)N[C@@H](CS)C(=O)N[C@@H](Cc1c[nH]c2ccccc12)C(=O)N[C@@H](CC(C)C)C(=O)N[C@@H](CCSC)C(=O)N[C@@H](CC(N)=O)C(=O)N[C@H](C(N)=O)[C@@H](C)O)C(C)C)C(=O)O)C(=O)O
EC50 at GLP-1 Receptor (GLP-1 receptor [1]): 0.008 nM | EC50 at Glucagon Receptor (glucagon receptor [2]): 0.009 nM

B5: Peptide 80** (Table 11) (peptide)
peptide: H[Aib]QGTFTSDK([γGlu-γGlu-Palmitoyl])SKYLD[Aib]RRAQDFVCWLMNT-NH2
modifications: N-terminus assumed
SMILES: CCCCCCCCCCCCCCCC(=O)N[C@@H](CCC(=O)N[C@@H](CCC(=O)NCCCC[C@H](NC(=O)[C@H](CC(=O)O)NC(=O)[C@H](CO)NC(=O)[C@@H](NC(=O)[C@H](Cc1ccccc1)NC(=O)[C@@H](NC(=O)CNC(=O)[C@H](CCC(N)=O)NC(=O)C(C)(C)NC(=O)[C@@H](N)Cc1c[nH]cn1)[C@@H](C)O)[C@@H](C)O)C(=O)N[C@@H](CO)C(=O)N[C@@H](CCCCN)C(=O)N[C@@H](Cc1ccc(O)cc1)C(=O)N[C@@H](CC(C)C)C(=O)N[C@@H](CC(=O)O)C(=O)NC(C)(C)C(=O)N[C@@H](CCCNC(=N)N)C(=O)N[C@@H](CCCNC(=N)N)C(=O)N[C@@H](C)C(=O)N[C@@H](CCC(N)=O)C(=O)N[C@@H](CC(=O)O)C(=O)N[C@@H](Cc1ccccc1)C(=O)N[C@H](C(=O)N[C@@H](CS)C(=O)N[C@@H](Cc1c[nH]c2ccccc12)C(=O)N[C@@H](CC(C)C)C(=O)N[C@@H](CCSC)C(=O)N[C@@H](CC(N)=O)C(=O)N[C@H](C(N)=O)[C@@H](C)O)C(C)C)C(=O)O)C(=O)O
EC50 at GLP-1 Receptor (GLP-1 receptor [1]): 0.008 nM | EC50 at Glucagon Receptor (glucagon receptor [2]): 0.006 nM

HS[Dab](Ac)GTFTSDYSKYLD[Aib]RRASDFVSWLLDE [HSDab(Ac)…ibRRASDFVSWLLDE]
% activity* (glucagon receptor [7]): 54% | EC50 (nM) at Glucagon Receptor (glucagon receptor [7]): 0.048 nM

B6: Peptide Chimera 2-AIB2-K30-acylated (peptide)
peptide: HXQGTFTSDYSKYLDEQAAKEFICWLMNTK
modifications: AIB at position 2; Lys at position 30 acylated with a C18 fatty acyl group; Cys at position 24 comprises a 40 kDa PEG molecule; C-terminal amide
EC50 at the GLP-1 receptor (GLP-1 receptor [4]): 0.465 nM

B7: Peptide 79** (Table 11) (peptide)
peptide: H[Aib]QGTFTSDK([Ala-Ala-Palmitoyl])SKYLD[Aib]RRAQDFVCWLMNT-NH2
modifications: N-terminus assumed
SMILES: CCCCCCCCCCCCCCCC(=O)N[C@@H](C)C(=O)N[C@@H](C)C(=O)NCCCC[C@H](NC(=O)[C@H](CC(=O)O)NC(=O)[C@H](CO)NC(=O)[C@@H](NC(=O)[C@H](Cc1ccccc1)NC(=O)[C@@H](NC(=O)CNC(=O)[C@H](CCC(N)=O)NC(=O)C(C)(C)NC(=O)[C@@H](N)Cc1c[nH]cn1)[C@@H](C)O)[C@@H](C)O)C(=O)N[C@@H](CO)C(=O)N[C@@H](CCCCN)C(=O)N[C@@H](Cc1ccc(O)cc1)C(=O)N[C@@H](CC(C)C)C(=O)N[C@@H](CC(=O)O)C(=O)NC(C)(C)C(=O)N[C@@H](CCCNC(=N)N)C(=O)N[C@@H](CCCNC(=N)N)C(=O)N[C@@H](C)C(=O)N[C@@H](CCC(N)=O)C(=O)N[C@@H](CC(=O)O)C(=O)N[C@@H](Cc1ccccc1)C(=O)N[C@H](C(=O)N[C@@H](CS)C(=O)N[C@@H](Cc1c[nH]c2ccccc12)C(=O)N[C@@H](CC(C)C)C(=O)N[C@@H](CCSC)C(=O)N[C@@H](CC(N)=O)C(=O)N[C@H](C(N)=O)[C@@H](C)O)C(C)C
EC50 at GLP-1 Receptor (GLP-1 receptor [1]): 0.008 nM | EC50 at Glucagon Receptor (glucagon receptor [2]): 0.01 nM
